Measurements published in US20200405833A1 (AFFIMED, published 2020).

T1: Mouse FcRn (FCGRT/B2M) (mouse, UniProt Q61559 22-297; P01887 21-119, biotin-labelled (Avi-Tag))
T1 construct: Purchased; also called murine FcRn; murine FcRn receptor
T1 sequence (looked up): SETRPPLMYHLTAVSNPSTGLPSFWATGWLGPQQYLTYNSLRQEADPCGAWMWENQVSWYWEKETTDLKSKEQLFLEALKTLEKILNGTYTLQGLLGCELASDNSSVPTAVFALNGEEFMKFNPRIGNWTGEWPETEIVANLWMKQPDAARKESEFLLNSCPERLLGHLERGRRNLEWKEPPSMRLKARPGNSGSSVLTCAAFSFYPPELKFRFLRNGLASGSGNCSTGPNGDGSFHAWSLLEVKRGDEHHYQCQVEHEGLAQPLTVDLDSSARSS
T1 sequence (b2m, looked up): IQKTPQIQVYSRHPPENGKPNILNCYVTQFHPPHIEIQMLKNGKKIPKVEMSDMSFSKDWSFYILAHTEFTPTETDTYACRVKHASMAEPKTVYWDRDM


Experiments:
Mouse FcRn (FCGRT/B2M) = molecular target: T1, Mouse FcRn (FCGRT/B2M); assay: SPR (Biacore T200), pH 6.0, biotinylated FcRn captured, multi cycle kinetics, 1:1 model
Protocol: (§1) Binding of EGFR/CD16A antigen-binding proteins to FcRn (human, cynomolgus, murine) was measured on a Biacore T200 Instrument at 25° C. using PBS-T buffer pH 6.0 as running buffer and for dilution (1×Gibco PBS, 0.005% Tween20, titrated to pH 6.0 using 4 M HCl). For this purpose, a Multi Cycle Kinetic experiments was performed using Biotin CAPture Kit (GE Healthcare). For activation of the sensor surface, Biotin CAPture reagent (GE Healthcare) was injected to Flow Cells Fc 1-4 (100 sec, 5 μL/min) resulting in a response of 2100 RU-2800 RU. Biotinylated FcRn of different species were injected to Flow Cell Fc 2 (5 μL/min) resulting in a response of about 8-15 RU. A dilution series of EGFR/CD16A antigen-binding proteins was in (pH 7.4) as running buffer and for dilution. […] Chip was regenerated using Regeneration solution (GE Healthcare) (10 μL/min, Flow cells 1-4, 120 sec). Sensorgrams are referenced by subtraction of zero concentration cycle and subtraction of signals in reference channel Fc 1 (Fc 2-1, Fc 3-1, Fc 4-1). […] Chip was regenerated using Regeneration solution (GE Healthcare) (10 μL/min, Flow cells 1-4, 120 sec). […] Binding kinetics were evaluated by fitting data to 1:1 Binding Model (Rmax and RI locally fitted) using Biacore T200 Evaluation Software.

Human FcRn (FCGRT/B2M) = molecular target: T2, Human FcRn (FCGRT/B2M) (human, UniProt P55899 24-297; P61769 21-119, biotin-labelled (site not stated)); assay: as above
T2 construct: Purchased; also called FcRn (FCGRT/B2M), His-Tag, Biotin-Labeled, (Human) HiP Cat #71283

[1] = molecular target: T3, Cynomolgus FcRn (FCGRT/B2M) (cynomolgus, UniProt Q8SPV9 24-297; Q8SPW0 21-119, biotin-labelled (Avi-Tag)); assay: as above
T3 construct: Purchased; also called FcRn (FCGRT/B2M), Avi-Tag, Biotin-Labeled, (Cynomolgus) Acro Cat #FCM-C82W5
Protocol: as §1

huCD16A^RV-His = molecular target: T4, huCD16A^RV-His (human); assay: ELISA, coated EGFR/CD16A Bi-scFv-Fc, soluble huCD16A^RV-His titrated (the concentration axis is that of the antigen), Penta-HIS-HRP per paragraph 126
T4 construct: soluble, His-tagged; also called CD16-His antigen
Protocol: (§2) 96-well ELISA plates (Immuno MaxiSorp; Nunc) were coated overnight at 4° C. with recombinant antigen or antibodies in 100 mM Carbonate-bicarbonate buffer. […] After a blocking step with 3% (w/v) skim milk powder (Merck) dissolved in PBS, serial dilutions of the different antibodies or soluble antigens in PBS containing 0.3% (w/v) skim milk powder were incubated on the plates for 1.5 h at room temperature. After washing three times with 300 μL per well of PBS containing 0.1% (v/v) Tween 20, plates were incubated with detection antibodies for 1 h at room temperature. For the detection of His-tagged analytes, Penta-HIS-HRP (Qiagen) was used at 1:3000 dilution. […] After washing three times with 300 μL per well of PBS containing 0.1% (v/v) Tween 20, plates were incubated with Tetramethylbenzidine (TMB) substrate (Seramun) until colour development was clearly visible. The reaction was stopped through the addition of 100 μL per well of 0.5 M H₂SO₄. The absorbance was measured at 450 nm using a multilabel plate reader (Victor, Perkin Elmer).

human EGFR on cells [2] = molecular target: T5, human EGFR on cells (human, UniProt P00533 25-1210); assay: cell-based or functional assay
[3] = molecular target: T6, CD16A on primary human NK-cells (human, UniProt P08637 17-254); assay: flow cytometry on primary human NK-cells, 37°C, without IgG; mean of 2 experiments
T6 construct: whole, on cells; also called FcγRIIIA
Protocol: (§3) After the last staining step, the cells were washed again and resuspended in 0.2 mL of FACS buffer containing 2 μg/mL propidium iodide (PI) (Sigma, cat.: P4170) in order to exclude dead cells. The fluorescence of 2-5×10³ living cells was measured using a Millipore Guava EasyCyte flow cytometer (Merck Millipore, Schwalbach, Germany). Mean fluorescence intensities of the cell samples were calculated using Incyte software (Merck Millipore, Schwalbach, Germany). After subtracting the fluorescence intensity values of the cells stained with the secondary and tertiary reagents alone, the values were used for non-linear regression analysis using the GraphPad Prism software (GraphPad Prism version 6.00 for Windows, GraphPad Software, La Jolla Calif. USA). For the calculation of KD, the equation for one-site-binding (hyperbola) was used.
(§4) To assess the impact of physiological concentrations of human IgG on the binding capacity of bispecific EGFR/CD16A antigen-binding proteins, binding assays with several bispecific EGFR/CD16A antigen-binding proteins on primary human NK-cells were performed in presence or absence of 10 mg/mL polyclonal human IgG as exemplarily shown in FIG. 10.

[4] = molecular target: T6, CD16A on primary human NK-cells; assay: flow cytometry on primary human NK-cells, 37°C, with 10 mg/mL polyclonal human IgG (Gammanorm); mean of 2 experiments
Protocol: as §3, §4

EGFR-mFc = molecular target: T7, EGFR-mFc; assay: ELISA, coated EGFR-mFc antigen, Bi-scFv-Fc titrated, bound construct detected with biotinylated CD16-Fc and streptavidin-HRP
T7 construct: Coated at 2.5 µg/mL in ELISA; also called monomeric EGFR-mFc; EGFR-mFc antigen
Protocol: as §2

human EGFR on cells [5] = molecular target: T5, human EGFR on cells; assay: cell-based or functional assay; remark: listed apart in the source
[6] = molecular target: T6, CD16A on primary human NK-cells; assay: flow cytometry on primary human NK-cells, 37° C., without gammanorm
Protocol: as §3, §4

human EGFR on cells [7] = molecular target: T5, human EGFR on cells; assay: flow cytometry on EGFR-expressing A-431 cells, 37° C.
human EGFR on cells [8] = molecular target: T5, human EGFR on cells; assay: flow cytometry on A-431 cells, 37°C; mean of 4 experiments
human EGFR on cells [9] = molecular target: T5, human EGFR on cells; assay: cell-based or functional assay; remark: listed apart in the source
EGFR-antigen (ELISA) = molecular target: T8, EGFR-antigen (ELISA); assay: ELISA, coated EGFR-Fc antigen, aTriFlex titrated (His-tagged analyte, Penta-HIS-HRP per paragraph 126)
T8 construct: also called EGFR-Fc
Protocol: as §2

[10] = molecular target: T6, CD16A on primary human NK-cells; assay: flow cytometry on primary human NK-cells, 37°C, with 10 mg/mL polyclonal human IgG (Gammanorm); with 10 mg/mL polyclonal human IgG (Gammanorm)
CD16A-antigen (ELISA) = molecular target: T9, CD16A-antigen (ELISA); assay: ELISA, coated CD16A-Fc antigen, aTriFlex titrated (His-tagged analyte, Penta-HIS-HRP per paragraph 126)
T9 construct: also called CD16A-Fc
Protocol: as §2

T3 sequence (Q8SPV9 24-297 limits assumed, chain 1 of 2): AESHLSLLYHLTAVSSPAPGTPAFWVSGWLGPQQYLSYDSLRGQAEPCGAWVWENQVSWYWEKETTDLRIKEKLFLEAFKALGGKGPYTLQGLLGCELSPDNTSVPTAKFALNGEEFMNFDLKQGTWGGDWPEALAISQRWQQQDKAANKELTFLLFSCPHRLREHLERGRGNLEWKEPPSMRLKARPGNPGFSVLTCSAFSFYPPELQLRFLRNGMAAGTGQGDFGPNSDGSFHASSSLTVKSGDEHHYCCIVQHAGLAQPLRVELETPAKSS
T3 sequence (Q8SPW0 21-119 limits assumed, chain 2 of 2): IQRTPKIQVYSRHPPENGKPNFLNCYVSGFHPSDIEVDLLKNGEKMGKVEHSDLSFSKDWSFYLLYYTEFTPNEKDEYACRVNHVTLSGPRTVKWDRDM

Kd (Mouse FcRn (FCGRT/B2M)) [nM] | Kd (Human FcRn (FCGRT/B2M)) [nM] | Kd [1] [nM] | EC50 (read off the curve) (huCD16A^RV-His) [nM] | Kd [3] [nM] | Kd [4] [nM] | EC50 (read off the curve) (EGFR-mFc) [µg/mL] | EC50 (read off the curve) [6] [nM] | EC50 (read off the curve) (human EGFR on cells [7]) [nM] | Kd (human EGFR on cells [8]) [nM] | EC50, inhibition of EGF-induced EGFR phosphorylation (phospho-EGFR ELISA, A-431 cells), Exp.2 (human EGFR on cells [9]) [µg/mL] | EC50 (read off the curve) (EGFR-antigen (ELISA)) [nM] | Kd [10] [nM] | EC50 (read off the curve) (CD16A-antigen (ELISA)) [nM] | Binder | EC50 [pM] mean, 4 h calcein-release cytotoxicity, HCT-116 target cells, human NK-cells E:T 5:1 (human EGFR on cells [2]) [pM] | EC50 [pM] mean, 4 h calcein-release cytotoxicity, A-431 target cells, human NK-cells E:T 5:1 (human EGFR on cells [5]) [pM]
121 | 410 | 268 | ~4 | 5 | 20 | ~0.02 | ~6 | ~2 |  |  |  |  |  | Bi-scFv-Fc_02 (bispecific antibody, human IgG1, Homodimer: anti-CD16A scFv-Hinge-CH2-CH3 (silenced)-anti-EGFR scFv; also called EGFR/CD16A Bi-scFv-Fc; Bi-scFv-Fc_2) SYVLTQPSSVSVAPGQTATISCGGHNIGSKNVHWYQQRPGQSPVLVIYQDNKRPSGIPERFSGSNSGNTATLTISGTQAMDEADYYCQVWDNYSVLFGGGTKLTVLGGSGGSGGSGGSGGSGGSGGSQVQLVQSGAEVKKPGESLKVSCKASGYTFTSYYMHWVRQAPGQGLEWMGIINPSGGSTSYAQKFQGRVTMTRDTSTSTVYMELSSLRSEDTAVYYCARGSAYYYDFADYWGQGTLVTVSSEPKSCDKTHTCPPCPAPEFEGGPSVFLFPPKPKDTLMISRTPEVTCVVVAVSHEDPEVKFNWYVDGVEVHNAKTKPREEQYNSTYRVVSVLTVLHQDWLNGKEYKCKVSNKALPAPIEKTISKAKGQPREPQVYTLPPSREEMTKNQVSLTCLVKGFYPSDIAVEWESNGQPENNYKTTPPVLDSDGSFFLYSKLTVDKSRWQQGNVFSCSVMHEALHNHYTQKSLSLSPGGGGGSGGGGSQVQLQESGPGLVKPSETLSLTCTVSGGSVSSGSYYWSWIRQPPGKGLEWIGYIYYSGSTNYNPSLKSRVTISVDTSKNQFSLKLSSVTAADTAVYYCARNPISIPAFDIWGQGTMVTVSSGGSGGSGGSGGSGGSGGSQPVLTQPPSVSVAPGKTARITCGGNNIGSKSVHWYQQKPGQAPVLVIYYDSDRPSGIPERFSGSNSGNTATLTISRVEAGDEADYYCQVWDTSSDHVLFGGGTKLTVL | 3.8 | 2.7
 |  |  |  |  |  |  |  |  | 2 | > 100 |  |  |  | scFv-IgAb_01 (bispecific antibody) chain 1: QVQLQESGPGLVKPSETLSLTCTVSGGSVSSGSYYWSWIRQPPGKGLEWIGYIYYSGSTNYNPSLKSRVTISVDTSKNQFSLKLSSVTAADTAVYYCARNPISIPAFDIWGQGTMVTVSSASTKGPSVFPLAPSSKSTSGGTAALGCLVKDYFPEPVTVSWNSGALTSGVHTFPAVLQSSGLYSLSSVVVPSSSLGTQTYICNVNHKPSNTKVDKKVEPKSCDKTHTCPPCPAPEFEGGPSVFLFPPKPKDTLMISRTPEVTCVVVAVSHEDPEVKFNWYVDGVEVHNAKTKPREEQYNSTYRVVSVLTVLHQDWLNGKEYKCKVSNKALPAPIEKTISKAKGQPREPQVYTLPPSREEMTKNQVSLTCLVKGFYPSDIAVEWESNGQPENNYKTTPPVLDSDGSFFLYSKLTVDKSRWQQGNVFSCSVMHEALHNHYTQKSLSLSPGGGGGSGGGGSSYVLTQPSSVSVAPGQTATISCGGHNIGSKNVHWYQQRPGQSPVLVIYQDNKRPSGIPERFSGSNSGNTATLTISGTQAMDEADYYCQVWDNYSVLFGGGTKLTVLGGSGGSGGSGGSGGSGGSGGSQVQLVQSGAEVKKPGESLKVSCKASGYTFTSYYMHWVRQAPGQGLEWMGIINPSGGSTSYAQKFQGRVTMTRDTSTSTVYMELSSLRSEDTAVYYCARGSAYYYDFADYWGQGTLVTVSS chain 2: QPVLTQPPSVSVAPGKTARITCGGNNIGSKSVHWYQQKPGQAPVLVIYYDSDRPSGIPERFSGSNSGNTATLTISRVEAGDEADYYCQVWDTSSDHVLFGGGTKLTVLGQPKAAPSVTLFPPSSEELQANKATLVCLISDFYPGAVTVAWKADSSPVKAGVETTTPSKQSNNKYAASSYLSLTPEQWKSHRSYSCQVTHEGSTVEKTVAPTECS |  | 
 |  |  |  | 50.8 |  |  |  |  |  |  | ~7 | 456 | ~4 | EGFR/CD16A/HSA aTriFlex (other, also called EGFR/CD16A aTriFlex) chain 1: QVQLQESGPGLVKPSETLSLTCTVSGGSVSSGSYYWSWIRQPPGKGLEWIGYIYYSGSTNYNPSLKSRVTISVDTSKNQFSLKLSSVTAADTAVYYCARNPISIPAFDIWGQGTMVTVSSGGSGGSGGSGGSGGSGGSQPVLTQPPSVSVAPGKTARITCGGNNIGSKSVHWYQQKPGQAPVLVIYYDSDRPSGIPERFSGSNSGNTATLTISRVEAGDEADYYCQVWDTSSDHVLFGGGTKLTVLGGSGGSGGSSYVLTQPSSVSVAPGQTATISCGGHNIGSKNVHWYQQRPGQSPVLVIYQDNKRPSGIPERFSGSNSGNTATLTISGTQAMDEADYYCQVWDNYSVLFGGGTKLTVLGGSGGSGGSSYVLTQPSSVSVAPGQTATISCGGHNIGSKNVHWYQQRPGQSPVLVIYQDNKRPSGIPERFSGSNSGNTATLTISGTQAMDEADYYCQVWDNYSVLFGGGTKLTVLGGSGGSGGSEVQLLESGGGLVQPGGSLRLSCAVSGIDLSNYAINWVRQAPGKGLEWIGIIWASGTTFYATWAKGRFTISRDNSKNTVYLQMNSLRAEDTAVYYCARTVPGYSTAPYFDLWGQGTLVTVSSGGSGGSGGSGGSGGSGGSDIQMTQSPSSVSASVGDRVTITCQSSPSVWSNFLSWYQQKPGKAPKLLIYEASKLTSGVPSRFSGSGSGTDFTLTISSLQPEDFATYYCGGGYSSISDTTFGGGTKVEIK chain 2: QVQLVQSGAEVKKPGESLKVSCKASGYTFTSYYMHWVRQAPGQGLEWMGIINPSGGSTSYAQKFQGRVTMTRDTSTSTVYMELSSLRSEDTAVYYCARGSAYYYDFADYWGQGTLVTVSSGGSGGSGGSQVQLVQSGAEVKKPGESLKVSCKASGYTFTSYYMHWVRQAPGQGLEWMGIINPSGGSTSYAQKFQGRVTMTRDTSTSTVYMELSSLRSEDTAVYYCARGSAYYYDFADYWGQGTLVTVSS | 17.6 | 5.1
